± gives the half width of the 95% confidence interval.
Tests used:
[1] = folding stability dG unfold from chymotrypsin proteolysis; higher = more stable
How it was run: (§1)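 Designed mini-proteins with no cysteine and under 80 residues were kept only if AlphaFold2 dimer inter-PAE was above 15. In a PA-tagged cDNA display construct, they were digested with trypsin and chymotrypsin and then sequenced. K50 was inferred by Bayesian fitting of counts, and unfolding free energy was derived per protease or combined against a sequence-predicted unfolded-state K50 and a shared folded-state K50.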

[2] = folding stability dG unfold from trypsin proteolysis; higher = more stable
How it was run: as §1

[3] = folding stability dG unfold (combined trypsin and chymotrypsin); higher = more stable
How it was run: as §1

Sequence | folding stability dG unfold [1] [kcal/mol] | folding stability dG unfold [2] [kcal/mol] | folding stability dG unfold [3] [kcal/mol]
SAGGSAGGSAMTPEELLKAAEELAKKLNLKVEIEVKKNENGELTITVKVYKNGKLVKEFEIKSAGGSAGGSA [r18_369_TrROS_Hall] | 4.9 ± 0.11 | 3.06 ± 0.089 | 4.82 ± 0.16
SAGGSAGGSAMTPETIKEKYPNVDYSPSPLGGKTVYTFTFPSGSTVTVTFNPGSATITTIAGSAGGSAGGSA [r18_13_JUSTAS] | 3.38 ± 0.07 | 2.26 ± 0.13 | 2.96 ± 0.11
SAGGSAGGSAMTVSIPPEVITSVEYDPSTNKVTITPSDGSVKTYDVESPEEVFKANNIGPESAGGSAGGSAG [r3_34_JUSTAS] | 0.648 ± 0.11 | 0.887 ± 0.044 | 0.753 ± 0.095
SAGGSAGGSAMTVTITHDVPPDVSVTVTVTSNNKKIPVSTPSRAASATIPSSEVSSLEIVPSSAGGSAGGSA [r18_170_JUSTAS] | 0.792 ± 0.043 | -0.362 ± 0.29 | 0.496 ± 0.12
SAGGSAGGSAMVIEDPKTNKLIEVEKLPDGTYKVTIYDKKTGEKKTITMSKKDLEKLLKALSAGGSAGGSAG [r3_162_TrROS_Hall] | 4.78 ± 0.14 | 4.91 ± 0.44 | 4.81 ± 0.36
SAGGSAGGSAMVILTPDGYLKVIKSITVEEALDPETDEPVLDVKAEVEVIPLPSLDDPAFKESAGGSAGGSA [r18_6_TrMRF] | 0.447 ± 0.087 | 0.251 ± 0.076 | 0.396 ± 0.24
SAGGSAGGSAMVRIEFENGLVAEFPSDLPLEEVKEKAVELAKLLSNDKKPVKVKILDIKEEGSAGGSAGGSA [r18_213_TrMRF] | 0.763 ± 0.09 | 0.14 ± 0.15 | 0.407 ± 0.17
SAGGSAGGSAMVVEIKPEKLPNGKYKVTVTITDPSTGKTTTTPYIVDPNKFTEEDIKKKLSSAGGSAGGSAG [r3_127_JUSTAS] | 1.5 ± 0.077 | 1.37 ± 0.055 | 1.58 ± 0.098
SAGGSAGGSANAKIPDGQKVTLDFRVMIMMRMWQFDENGGKMEPRMMMIPIEVEIEIKIPPNASAGGSAGGS [r12_668_TrROS] | 5.06 ± 0.14 | 3.46 ± 0.1 | 4.71 ± 0.14
SAGGSAGGSANYMIKITIEYTPPNGKKEEVEVTVPGMPIDQLLNNLPPEYPVEIKDIEIYPGSAGGSAGGSA [r18_32_TrROS] | 0.154 ± 0.12 | 0.251 ± 0.024 | 0.326 ± 0.11
SAGGSAGGSAPDIKILEPLEVDPDNGMITLKIELPGDGKVHEAIFFNPDGEPMMKFTIEIPKSAGGSAGGSA [r18_296_TrROS] | 0.358 ± 0.31 | 0.219 ± 0.094 | 0.299 ± 0.3
SAGGSAGGSAPEVKIKVELFENENGELTATATIEVDGKLYKITVKFDKNGKIVEVKIEELPSAGGSAGGSAG [r3_165_TrROS_Hall] | 4.39 ± 0.27 | 2.83 ± 0.22 | 4.14 ± 0.45
SAGGSAGGSAPGSMLRIPVSEEELKKKGLTPEELAKEIRERYPELPESVVVEFPPDGNIVIVESAGGSAGGS [r12_50_JUSTAS] | 0.885 ± 0.056 | 0.906 ± 0.05 | 1 ± 0.16
SAGGSAGGSAPKILIVEDEKTGKLYAFVYDKDTKELYVAEFTYDKKTKKLTVKIKKVSLEDLSAGGSAGGSA [r18_505_TrROS_Hall] | 4.67 ± 0.18 | 2.88 ± 0.09 | 4.19 ± 0.26
SAGGSAGGSAPKPKTKTIMFRFPGTPEDALDIAKEIANYFNDRGLEIEVERHPNGYIMITFPSAGGSAGGSA [r18_262_TrROS] | 2.82 ± 0.034 | 2.11 ± 0.059 | 2.61 ± 0.065
SAGGSAGGSAPLRFEFELPGNYRVRIELEPVPDDPSAGPRYRLRIEVFDLETGEVLPFEIDGSAGGSAGGSA [r18_66_TrMRF] | 4.18 ± 0.064 | 2.75 ± 0.065 | 3.74 ± 0.061
SAGGSAGGSAPMVLLLEFDSPEEATEAAKKIAEEFEKLGAKVEVEIFKPPEDKYLVLIRIDSAGGSAGGSAG [r3_211_TrMRF] | 3.91 ± 0.12 | 3.66 ± 0.38 | 3.89 ± 0.21
SAGGSAGGSAPNYIKIRIKFQSDGKRHSMEIFIPDNPKKAKQIAKEMANMGGIEDVEVERYSAGGSAGGSAG [r3_310_TrROS] | 0.659 ± 0.13 | 0.515 ± 0.13 | 0.667 ± 0.16
SAGGSAGGSAPPLDRVFVEVRVEPGEDAGVVVTHPDGRVLTAPADADVVFEFHPDVPVLVADASAGGSAGGS [r12_553_TrMRF] | 0.129 ± 0.12 | -1.27 ± 0.49 | -0.201 ± 0.18
SAGGSAGGSAPPPPPPVYRIPIEITEIDPNGKITVTLPDLGEEITFPAPNVEVIPGDEFYIPSAGGSAGGSA [r18_89_TrROS] | 1.67 ± 0.045 | 1.95 ± 0.11 | 1.86 ± 0.16
SAGGSAGGSAPPVKTITVELVFFNPETQEVFVLRAEVRLLPDGTLEIRTEIERVKVEPGAVLLSAGGSAGGS [r12_116_TrROS_Hall] | 2.22 ± 0.11 | 1.64 ± 0.096 | 2.09 ± 0.15

Sequence | folding stability dG unfold [1] [kcal/mol] | folding stability dG unfold [2] [kcal/mol] | folding stability dG unfold [3] [kcal/mol]
SAGGSAGGSAPSKKVKFKVLAKNTKTGKYKEIDITAEVPVSNGKVVSIEELLKKFPDFELKPSAGGSAGGSA [r18_267_TrMRF] | 0.0845 ± 0.38 | 0.342 ± 0.11 | 0.172 ± 0.21
SAGGSAGGSAPTLELTVTLPDGLRVTVRYDLETDEVTIEVRPLPAPPPPELSEEERKKLAEESAGGSAGGSA [r18_236_TrROS_Hall] | 2.25 ± 0.2 | 1.24 ± 0.056 | 1.98 ± 0.12
SAGGSAGGSAPTSSVVTFPYESPEEARERARELAEEERARRGVRFRVEYDPATGTVTLTAVESAGGSAGGSA [r18_368_JUSTAS] | 0.926 ± 0.12 | 0.673 ± 0.064 | 0.859 ± 0.13
SAGGSAGGSAPWLTIIFRMDTPEMAKEIANWLREDGLDIEVETEPDPNDGRFWVMITIQLPNSAGGSAGGSA [r18_455_TrROS] | 4.24 ± 0.07 | 3.57 ± 0.16 | 3.96 ± 0.17
SAGGSAGGSAPWYIAIYMPGNGRKRTYPFKSADDIKEEIKEHLGPGMNPDNVEIKIIPPDDISAGGSAGGSA [r18_350_TrROS] | -0.782 ± 0.81 | 0.279 ± 0.14 | -0.0945 ± 0.38
SAGGSAGGSARVFIVITYQNPGDGKPRQITIPIDIKDGKITLDDLKELFPGYPITNISIFPLSAGGSAGGSA [r18_494_TrROS] | 3.58 ± 0.12 | 3.5 ± 0.14 | 3.65 ± 0.13
SAGGSAGGSASAEEIAAKIEALFPVKVTVVREEPTPLGRPEVVIEVDAVGVPEELLEEVLKSAGGSAGGSAG [r3_40_JUSTAS] | 0.446 ± 0.033 | 0.68 ± 0.04 | 0.559 ± 0.064
SAGGSAGGSASIELPPDATVTLTTLDPATGTVTTTTVKVDSTGTTTLATTTTTVDPASAAAASAGGSAGGSA [r18_248_JUSTAS] | 1.35 ± 0.028 | 1.27 ± 0.055 | 1.41 ± 0.11
SAGGSAGGSASIGGGPTGHSYKITLPNGTEKFLVMDPSTLKELIEKLGVKEVEVKDIGPLQSAGGSAGGSAG [r3_141_JUSTAS] | 0.0184 ± 0.27 | 0.842 ± 0.077 | 0.482 ± 0.15
SAGGSAGGSASITLTLGDTPLEVSTDPSTNTYTFTYPAPGLVLTLDVSTGKLSARPLAELASAGGSAGGSAG [r3_137_JUSTAS] | 1.69 ± 0.071 | 0.216 ± 0.11 | 1.13 ± 0.077
SAGGSAGGSASLSPDEEVEITDPANGTKYKVTKLPDGTVLLENPETGETYVRTDSNDWKLTSAGGSAGGSAG [r3_96_JUSTAS] | 0.88 ± 0.18 | 0.88 ± 0.04 | 0.932 ± 0.15
SAGGSAGGSASMDTVVEVGPEILSTGLPIEKVTYDPNTGKTYIETPDKLYVIDSDGNITVDASAGGSAGGSA [r18_445_JUSTAS] | 1.69 ± 0.025 | 1.72 ± 0.057 | 1.72 ± 0.057
SAGGSAGGSASMGVVDEFVVYVPGEKGEEVEVKVYKDPNSDRYIVEIKGKKIPVTDEKKALLSAGGSAGGSA [r18_67_JUSTAS] | 0.0997 ± 0.33 | 0.41 ± 0.068 | 0.447 ± 0.26
SAGGSAGGSASMKEVTILVKKKLPGGEEEESVTTVTLNPNEIDKVKEEFKKKGWEVVKVVSSAGGSAGGSAG [r3_453_JUSTAS] | 1.74 ± 0.034 | 1.23 ± 0.017 | 1.56 ± 0.045
SAGGSAGGSASMKVLEFPPDASIEEILEKIEKELGLSKEEIKNIKIEKIDDEEGSYKVIIESAGGSAGGSAG [r3_26_JUSTAS] | 2.62 ± 0.054 | 2.42 ± 0.062 | 2.59 ± 0.07
SAGGSAGGSASMNVLVVRTKPDGTPEVTEVETGDPEKAKEEIAKRSNVTTPEGTVTVELTGVSAGGSAGGSA [r18_457_JUSTAS] | -1.06 ± 0.27 | -1.02 ± 0.13 | -0.961 ± 0.46
SAGGSAGGSASMSYITKVEYKESPEGKLITTTTTTDPTSPNDVKTTTTVTPLPPLNPSPELKSAGGSAGGSA [r18_409_JUSTAS] | -0.829 ± 0.73 | -0.309 ± 0.085 | -0.525 ± 0.29
SAGGSAGGSASMTVVVEREEITRRDPSSDELFEEEVVRATTTEKDGVIETTTLPEEEWEKLSSAGGSAGGSA [r18_406_JUSTAS] | -0.521 ± 0.2 | 0.348 ± 0.056 | -0.0202 ± 0.32
SAGGSAGGSASPQVVEVLSTVPLPGSNIVIEKTSDASGNSYVYDPNTGKWFSPEEAKKLLSSAGGSAGGSAG [r3_206_JUSTAS] | 1.73 ± 0.077 | 0.84 ± 0.057 | 1.5 ± 0.1
SAGGSAGGSASSSTFPRRNYTVTITTDPSNGKKTVTVLNPATGEATTLTPEELEADPVLAEAVSAGGSAGGS [r12_817_JUSTAS] | 1.8 ± 0.021 | 1.05 ± 0.017 | 1.51 ± 0.043
SAGGSAGGSASSVPARLPDATVLEVTTDPATGLQTALLRFPDGSEVVVTHYPDGSVEVRPLSAGGSAGGSAG [r3_348_JUSTAS] | 2.67 ± 0.028 | 1.84 ± 0.062 | 2.47 ± 0.099
